Measured values reported in PMC7904663 (Nature chemical biology, 2021).

Key:
NicA2 = target: T1, NicA2 (Pseudomonas putida, UniProt F8G0P2); test: biochemical
T1 sequence (F8G0P2 1-482): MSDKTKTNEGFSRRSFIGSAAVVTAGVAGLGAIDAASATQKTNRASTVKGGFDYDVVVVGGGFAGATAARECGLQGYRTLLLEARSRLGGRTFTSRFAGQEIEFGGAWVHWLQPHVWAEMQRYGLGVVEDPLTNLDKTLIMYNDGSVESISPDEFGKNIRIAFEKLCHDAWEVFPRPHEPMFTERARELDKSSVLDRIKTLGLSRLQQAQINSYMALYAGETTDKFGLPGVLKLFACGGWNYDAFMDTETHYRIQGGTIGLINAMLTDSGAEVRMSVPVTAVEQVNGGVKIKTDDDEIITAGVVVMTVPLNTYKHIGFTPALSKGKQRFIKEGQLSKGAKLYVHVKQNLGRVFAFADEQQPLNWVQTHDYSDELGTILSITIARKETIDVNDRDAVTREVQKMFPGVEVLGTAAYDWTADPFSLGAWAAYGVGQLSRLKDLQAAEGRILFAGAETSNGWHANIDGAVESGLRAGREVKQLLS

[1] = target: Nicotine oxidoreductase (NicA2) (Pseudomonas putida S16) (UniProt F8G0P2); test: stopped-flow absorbance spectrophotometry

Molecule | Kd (NicA2) [µM] | bimolecular rate constant (kon), first phase, N-methylmyosmine-bound NicA2 [1] [M⁻¹ s⁻¹] | bimolecular rate constant (kon), second phase, N-methylmyosmine-bound NicA2 [1] [M⁻¹ s⁻¹] | kon, first phase (CycNox with NicA2-Flred) [1] [M⁻¹ s⁻¹]
c1cncc(C2=NCCC2)c1 [myosmine] | 268 ± 3 |  |  | 
CycN (cytochrome c of Pseudomonas putida S16) (natural protein) |  | 140000 | 77000 | 1e+06
